Results as given in US10562947B2, “Compositions and methods for preventing or treating diseases, conditions or processes characterized by aberrant fibroblast proliferation and extracellular matrix deposition” (MOERAE MATRIX, INC., priority 2011, dated 2020).

Tests used:
Assay in all cases: Kinase Profiling Assay
Assay type in all cases: biochemical
Details in all cases: 100 μM peptide
CDK1/cyclinB(h) = CDK1/cyclinB(h) (Homo sapiens, UniProt P06493)
Outline: (§1)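 In duplicate, the activities of 266 available human kinases were determined with MK2 inhibitory peptides present, as a measure of peptide selectivity.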

CK2(h) = CK2(h) (Homo sapiens, UniProt P68400)
Outline: as §1

EGFR(h) = EGFR(h) (Homo sapiens, UniProt P00533)
Outline: as §1

EphA4(h) = EphA4(h) (Homo sapiens, UniProt P54764)
EphA4(h), sequence (P54764 20-986): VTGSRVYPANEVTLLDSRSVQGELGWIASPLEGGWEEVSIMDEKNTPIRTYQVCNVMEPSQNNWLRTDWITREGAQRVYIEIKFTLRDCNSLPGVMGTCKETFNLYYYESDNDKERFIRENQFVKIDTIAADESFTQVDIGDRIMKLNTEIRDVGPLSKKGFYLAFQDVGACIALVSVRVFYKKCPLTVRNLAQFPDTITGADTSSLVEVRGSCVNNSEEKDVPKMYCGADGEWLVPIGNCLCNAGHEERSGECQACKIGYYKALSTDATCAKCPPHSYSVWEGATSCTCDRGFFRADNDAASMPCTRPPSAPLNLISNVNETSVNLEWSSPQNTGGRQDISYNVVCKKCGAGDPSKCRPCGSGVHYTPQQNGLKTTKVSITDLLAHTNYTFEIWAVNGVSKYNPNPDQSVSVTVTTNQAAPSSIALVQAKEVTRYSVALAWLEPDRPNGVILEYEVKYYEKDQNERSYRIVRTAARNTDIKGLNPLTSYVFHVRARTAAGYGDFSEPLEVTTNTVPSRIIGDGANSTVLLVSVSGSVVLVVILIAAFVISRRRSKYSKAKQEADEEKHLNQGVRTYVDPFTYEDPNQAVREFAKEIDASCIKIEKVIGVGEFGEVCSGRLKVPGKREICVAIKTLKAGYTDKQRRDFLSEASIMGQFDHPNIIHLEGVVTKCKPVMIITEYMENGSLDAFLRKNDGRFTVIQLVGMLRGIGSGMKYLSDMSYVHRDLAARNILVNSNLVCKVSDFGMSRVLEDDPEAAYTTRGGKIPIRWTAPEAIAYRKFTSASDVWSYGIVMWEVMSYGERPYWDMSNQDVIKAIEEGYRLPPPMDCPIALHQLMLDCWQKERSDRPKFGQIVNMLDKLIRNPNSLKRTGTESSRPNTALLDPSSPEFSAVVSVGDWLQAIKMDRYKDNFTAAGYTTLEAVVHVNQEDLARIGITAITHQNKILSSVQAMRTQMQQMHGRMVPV
Outline: as §1

EphB1(h) = target: T1, EphB1(h) (Homo sapiens, UniProt P54762)
T1 sequence (P54762 18-984): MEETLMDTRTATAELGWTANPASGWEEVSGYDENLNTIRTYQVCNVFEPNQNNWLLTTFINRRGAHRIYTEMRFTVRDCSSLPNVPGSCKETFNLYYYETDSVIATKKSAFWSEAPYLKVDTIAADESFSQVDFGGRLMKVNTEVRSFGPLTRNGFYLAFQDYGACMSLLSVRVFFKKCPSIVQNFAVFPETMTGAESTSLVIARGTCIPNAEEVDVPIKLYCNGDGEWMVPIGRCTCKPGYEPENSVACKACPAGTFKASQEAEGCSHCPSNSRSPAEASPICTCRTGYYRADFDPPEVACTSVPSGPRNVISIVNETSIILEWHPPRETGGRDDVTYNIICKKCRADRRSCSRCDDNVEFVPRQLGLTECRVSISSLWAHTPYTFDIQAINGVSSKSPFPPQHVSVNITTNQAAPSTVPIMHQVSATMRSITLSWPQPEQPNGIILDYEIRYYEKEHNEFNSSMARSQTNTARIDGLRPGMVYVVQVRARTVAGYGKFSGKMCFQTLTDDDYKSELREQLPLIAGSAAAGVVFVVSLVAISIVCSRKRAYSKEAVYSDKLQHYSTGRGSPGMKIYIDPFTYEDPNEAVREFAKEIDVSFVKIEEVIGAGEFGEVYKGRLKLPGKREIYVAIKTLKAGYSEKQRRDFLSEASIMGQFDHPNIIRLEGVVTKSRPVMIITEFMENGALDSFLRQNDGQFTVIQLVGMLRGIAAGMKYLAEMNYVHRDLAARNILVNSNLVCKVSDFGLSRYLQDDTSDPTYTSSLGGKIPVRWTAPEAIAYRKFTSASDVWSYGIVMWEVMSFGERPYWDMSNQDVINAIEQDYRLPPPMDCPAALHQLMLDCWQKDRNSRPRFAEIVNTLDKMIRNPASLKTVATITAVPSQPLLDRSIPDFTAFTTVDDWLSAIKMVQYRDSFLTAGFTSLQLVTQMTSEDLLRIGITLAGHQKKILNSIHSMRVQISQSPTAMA
Outline: as §1

ErbB4(h) = ErbB4(h) (Homo sapiens, UniProt Q15303)
ErbB4(h), sequence (Q15303 26-1308): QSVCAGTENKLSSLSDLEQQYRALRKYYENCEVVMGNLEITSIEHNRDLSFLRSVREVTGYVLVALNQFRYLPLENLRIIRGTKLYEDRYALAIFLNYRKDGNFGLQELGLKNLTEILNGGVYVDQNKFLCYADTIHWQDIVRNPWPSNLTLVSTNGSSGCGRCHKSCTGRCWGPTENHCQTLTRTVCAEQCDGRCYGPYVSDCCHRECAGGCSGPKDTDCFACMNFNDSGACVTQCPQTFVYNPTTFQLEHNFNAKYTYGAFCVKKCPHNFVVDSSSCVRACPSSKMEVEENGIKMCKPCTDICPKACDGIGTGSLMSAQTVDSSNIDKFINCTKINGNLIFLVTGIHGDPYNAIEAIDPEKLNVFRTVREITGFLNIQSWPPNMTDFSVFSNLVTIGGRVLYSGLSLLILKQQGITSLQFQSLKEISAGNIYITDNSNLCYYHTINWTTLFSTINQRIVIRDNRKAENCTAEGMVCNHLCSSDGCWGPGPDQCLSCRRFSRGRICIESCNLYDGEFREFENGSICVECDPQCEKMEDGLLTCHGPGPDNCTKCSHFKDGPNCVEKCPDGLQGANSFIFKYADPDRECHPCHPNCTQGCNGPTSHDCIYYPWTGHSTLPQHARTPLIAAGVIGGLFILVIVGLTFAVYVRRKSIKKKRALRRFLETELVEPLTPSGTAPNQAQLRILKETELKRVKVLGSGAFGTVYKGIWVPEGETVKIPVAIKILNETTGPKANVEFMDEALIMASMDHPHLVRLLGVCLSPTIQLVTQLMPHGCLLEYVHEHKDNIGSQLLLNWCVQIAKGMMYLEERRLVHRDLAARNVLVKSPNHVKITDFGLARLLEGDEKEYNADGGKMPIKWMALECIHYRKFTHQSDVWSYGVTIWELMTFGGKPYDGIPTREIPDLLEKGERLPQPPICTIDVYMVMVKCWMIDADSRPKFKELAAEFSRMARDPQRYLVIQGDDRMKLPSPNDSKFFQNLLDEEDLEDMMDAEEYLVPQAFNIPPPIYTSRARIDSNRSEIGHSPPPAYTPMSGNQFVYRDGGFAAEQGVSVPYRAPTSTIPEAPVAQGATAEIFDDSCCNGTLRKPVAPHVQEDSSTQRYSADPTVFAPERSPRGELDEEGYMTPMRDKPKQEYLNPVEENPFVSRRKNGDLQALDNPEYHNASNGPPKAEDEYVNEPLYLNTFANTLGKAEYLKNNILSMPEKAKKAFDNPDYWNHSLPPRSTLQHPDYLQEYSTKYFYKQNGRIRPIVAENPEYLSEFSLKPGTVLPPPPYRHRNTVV
Outline: as §1

F1t4(h) = F1t4(h) (Homo sapiens, UniProt P35916)
F1t4(h), sequence (P35916 25-1363): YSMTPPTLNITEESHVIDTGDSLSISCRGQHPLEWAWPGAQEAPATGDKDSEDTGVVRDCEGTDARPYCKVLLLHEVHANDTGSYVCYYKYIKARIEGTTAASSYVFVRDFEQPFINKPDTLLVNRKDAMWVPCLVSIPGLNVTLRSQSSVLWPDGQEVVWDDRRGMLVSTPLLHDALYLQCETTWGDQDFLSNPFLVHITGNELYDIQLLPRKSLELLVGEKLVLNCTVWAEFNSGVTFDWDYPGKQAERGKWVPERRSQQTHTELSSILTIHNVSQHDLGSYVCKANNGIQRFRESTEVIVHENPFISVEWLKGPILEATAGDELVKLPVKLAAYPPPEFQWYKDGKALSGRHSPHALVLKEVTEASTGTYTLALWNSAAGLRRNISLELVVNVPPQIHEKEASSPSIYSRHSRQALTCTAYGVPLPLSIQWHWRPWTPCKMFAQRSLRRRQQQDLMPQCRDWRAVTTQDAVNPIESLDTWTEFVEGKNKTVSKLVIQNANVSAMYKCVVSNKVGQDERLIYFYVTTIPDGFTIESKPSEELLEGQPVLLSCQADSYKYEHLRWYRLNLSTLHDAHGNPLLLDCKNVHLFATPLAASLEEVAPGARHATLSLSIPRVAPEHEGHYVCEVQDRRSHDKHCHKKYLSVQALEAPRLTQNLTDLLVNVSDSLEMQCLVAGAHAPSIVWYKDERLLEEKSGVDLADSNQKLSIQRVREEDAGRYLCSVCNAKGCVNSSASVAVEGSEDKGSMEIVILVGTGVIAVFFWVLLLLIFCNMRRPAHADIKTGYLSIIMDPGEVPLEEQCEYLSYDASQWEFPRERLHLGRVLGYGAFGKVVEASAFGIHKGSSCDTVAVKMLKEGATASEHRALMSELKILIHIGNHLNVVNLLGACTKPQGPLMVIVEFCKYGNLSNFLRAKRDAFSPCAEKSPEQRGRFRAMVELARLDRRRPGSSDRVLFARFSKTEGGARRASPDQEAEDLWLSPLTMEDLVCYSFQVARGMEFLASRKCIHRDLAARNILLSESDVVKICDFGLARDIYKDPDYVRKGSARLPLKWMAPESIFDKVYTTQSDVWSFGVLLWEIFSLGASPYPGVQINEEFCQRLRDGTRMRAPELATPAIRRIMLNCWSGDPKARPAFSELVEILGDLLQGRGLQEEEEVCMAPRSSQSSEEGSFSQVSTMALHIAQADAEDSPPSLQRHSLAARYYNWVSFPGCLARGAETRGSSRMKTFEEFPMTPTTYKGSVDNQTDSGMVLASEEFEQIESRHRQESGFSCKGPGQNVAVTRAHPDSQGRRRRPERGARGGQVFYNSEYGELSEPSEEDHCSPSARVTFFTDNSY
Outline: as §1

Lyn(h) = Lyn(h) (Homo sapiens, UniProt P07948)
Lyn(h), sequence (P07948 whole entry): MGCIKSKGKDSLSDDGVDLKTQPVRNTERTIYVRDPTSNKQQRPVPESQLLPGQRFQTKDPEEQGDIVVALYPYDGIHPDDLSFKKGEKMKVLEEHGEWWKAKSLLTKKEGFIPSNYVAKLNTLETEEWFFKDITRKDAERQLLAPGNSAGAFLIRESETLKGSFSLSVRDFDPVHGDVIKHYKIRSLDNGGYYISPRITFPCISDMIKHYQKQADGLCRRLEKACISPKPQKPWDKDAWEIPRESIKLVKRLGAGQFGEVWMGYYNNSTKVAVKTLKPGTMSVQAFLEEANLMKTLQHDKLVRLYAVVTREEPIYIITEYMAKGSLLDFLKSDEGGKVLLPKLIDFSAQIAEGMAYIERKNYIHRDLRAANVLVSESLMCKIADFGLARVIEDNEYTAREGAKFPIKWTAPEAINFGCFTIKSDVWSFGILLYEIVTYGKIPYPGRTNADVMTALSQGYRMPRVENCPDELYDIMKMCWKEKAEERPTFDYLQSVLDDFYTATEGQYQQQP
Outline: as §1

NEK11(h) = target: T2, NEK11(h) (Homo sapiens, UniProt Q8NG66)
T2 sequence (Q8NG66 1-645): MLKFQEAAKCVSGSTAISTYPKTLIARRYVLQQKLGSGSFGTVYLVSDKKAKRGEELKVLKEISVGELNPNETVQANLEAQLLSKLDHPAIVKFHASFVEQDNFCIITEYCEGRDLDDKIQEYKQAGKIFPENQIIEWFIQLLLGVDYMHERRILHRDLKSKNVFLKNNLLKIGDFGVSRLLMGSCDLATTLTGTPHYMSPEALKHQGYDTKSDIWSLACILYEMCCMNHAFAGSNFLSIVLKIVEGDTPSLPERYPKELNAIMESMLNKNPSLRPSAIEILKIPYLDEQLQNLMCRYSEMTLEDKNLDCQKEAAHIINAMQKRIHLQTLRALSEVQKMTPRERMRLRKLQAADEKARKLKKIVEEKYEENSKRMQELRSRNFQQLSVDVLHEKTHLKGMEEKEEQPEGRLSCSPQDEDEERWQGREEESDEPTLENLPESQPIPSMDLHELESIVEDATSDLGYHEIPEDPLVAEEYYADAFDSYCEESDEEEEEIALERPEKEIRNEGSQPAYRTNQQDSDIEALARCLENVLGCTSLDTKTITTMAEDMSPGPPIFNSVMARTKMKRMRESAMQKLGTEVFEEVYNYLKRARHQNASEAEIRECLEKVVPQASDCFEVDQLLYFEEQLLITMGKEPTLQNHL
Outline: as §1

SAPK2a(T106M)(h) = SAPK2a(T106M)(h) (Homo sapiens, UniProt Q16539, T106M)
SAPK2a(T106M)(h), sequence (Q16539 whole entry T106M): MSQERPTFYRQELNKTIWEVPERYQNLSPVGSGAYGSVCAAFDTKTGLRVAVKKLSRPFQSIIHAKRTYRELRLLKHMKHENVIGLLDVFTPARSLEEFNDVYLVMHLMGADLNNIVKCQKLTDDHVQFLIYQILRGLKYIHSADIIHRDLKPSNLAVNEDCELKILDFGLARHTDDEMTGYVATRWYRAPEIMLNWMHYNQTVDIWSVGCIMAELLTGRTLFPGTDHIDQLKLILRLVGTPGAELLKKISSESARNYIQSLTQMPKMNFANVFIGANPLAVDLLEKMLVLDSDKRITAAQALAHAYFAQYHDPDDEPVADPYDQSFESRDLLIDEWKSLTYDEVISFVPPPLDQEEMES
Outline: as §1

STK33(h) = STK33(h) (Homo sapiens, UniProt Q9BYT3)
STK33(h), sequence (Q9BYT3 whole entry): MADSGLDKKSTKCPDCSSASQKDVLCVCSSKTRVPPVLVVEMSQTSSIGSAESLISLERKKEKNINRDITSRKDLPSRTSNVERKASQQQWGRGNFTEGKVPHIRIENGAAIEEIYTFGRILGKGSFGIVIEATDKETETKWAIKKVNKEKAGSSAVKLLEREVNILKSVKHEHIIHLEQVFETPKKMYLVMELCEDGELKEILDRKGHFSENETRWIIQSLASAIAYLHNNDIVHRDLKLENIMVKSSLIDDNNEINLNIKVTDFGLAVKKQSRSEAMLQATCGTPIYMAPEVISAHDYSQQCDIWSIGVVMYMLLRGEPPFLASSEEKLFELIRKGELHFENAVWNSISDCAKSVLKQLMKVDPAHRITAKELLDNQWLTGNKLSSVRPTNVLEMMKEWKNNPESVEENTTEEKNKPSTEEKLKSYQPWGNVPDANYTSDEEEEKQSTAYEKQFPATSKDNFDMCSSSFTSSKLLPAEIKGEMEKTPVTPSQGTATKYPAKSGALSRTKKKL
Outline: as §1

Txk(h) = target: T3, Txk(h) (Homo sapiens, UniProt P42681)
T3 sequence (P42681 1-527): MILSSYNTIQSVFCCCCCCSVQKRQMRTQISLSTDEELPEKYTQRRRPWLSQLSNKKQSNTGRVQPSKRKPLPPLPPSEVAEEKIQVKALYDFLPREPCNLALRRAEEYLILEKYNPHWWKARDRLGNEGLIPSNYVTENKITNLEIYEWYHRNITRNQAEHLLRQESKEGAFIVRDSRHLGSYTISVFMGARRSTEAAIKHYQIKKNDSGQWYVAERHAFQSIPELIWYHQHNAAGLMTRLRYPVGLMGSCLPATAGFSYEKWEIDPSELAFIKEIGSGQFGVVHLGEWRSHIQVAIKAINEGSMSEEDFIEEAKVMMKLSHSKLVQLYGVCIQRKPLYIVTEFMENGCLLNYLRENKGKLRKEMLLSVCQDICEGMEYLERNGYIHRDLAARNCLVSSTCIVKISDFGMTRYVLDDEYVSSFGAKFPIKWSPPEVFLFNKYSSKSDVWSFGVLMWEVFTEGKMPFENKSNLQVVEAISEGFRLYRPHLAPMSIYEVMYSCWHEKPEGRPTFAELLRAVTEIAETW
Outline: as §1

cKit(D816H)(h) = cKit(D816H)(h) (Homo sapiens, UniProt P10721, D816H)
Outline: as §1

Sequence	CDK1/cyclinB(h) % activity (CDK1/cyclinB(h)) [%]	CK2(h) % activity (CK2(h)) [%]	EGFR(h) % activity (EGFR(h)) [%]	EphA4(h) % activity (EphA4(h)) [%]	EphB1(h) % activity (EphB1(h)) [%]	ErbB4(h) % activity (ErbB4(h)) [%]	F1t4(h) % activity (F1t4(h)) [%]	Lyn(h) % activity (Lyn(h)) [%]	NEK11(h) % activity (NEK11(h)) [%]	SAPK2a(T106M)(h) % activity (SAPK2a(T106M)(h)) [%]	STK33(h) % activity (STK33(h)) [%]	Txk(h) % activity (Txk(h)) [%]	cKit(D816H)(h) % activity (cKit(D816H)(h)) [%]
KAFAKLAARLYRKALARQLGVAA [MMI-0400]	74	101	16	65	58	0	89	3	33	99	52	37	143
YARAAARQARAKALNRQLGVA (Mammalian) [MMI-0200]		83	83	127	95	82		98	95	100	98	98	
FAKLAARLYRKALARQLGVAA [MMI-0300]	73	90	21	88	44	40	83	69	53	97	45	48	126
HRRIKAWLKKIKALARQLGVAA (Mammalian) [MMI-0500]	57	93	−1	48	37	2	73	31	2	32	16	10	194
